Laboratory results taken from US10400009B2, “β-sheet breaker peptide used for preventing and/or treating alzheimer's disease” (TIANJIN MEDICAL UNIVERSITY, priority 2014, dated 2019).
Ends that are not written are not given here.

What was measured:
[1] = target: T1, Aβ1-42 (Homo sapiens, UniProt P05067); experiment: ThT fluorescence spectrophotometry of Aβ1-42 aggregation; format: biochemical; conditions: Aβ1-42 11.07 μmol/L, peptide 44.3 μmol/L, 37° C., 24 h, PBS pH 7.4; x ± S
T1 construct: purchased Sigma, Inc. (US)
Method: 1.2 the Inhibition Effect of HPYD on Aβ Aggregation was Analyzed by ThT Fluorescence Spectrophotometry.
The degree of Aβ aggregation may be reflected by ThT fluorescence intensity. Aβ1-42 lyophilized powder was formulated in 50 mmol/L PBS phosphate buffer (pH 7.4) to obtain a solution in a concentration of 22.15 μmol/L. The polypeptides H102 and HPYD were also formulated in 50 mmol/L PBS phosphate buffer (pH 7.4) to obtain a solution in a concentration of 88.60 μmol/L. In the experiment, Aβ1-42 was mixed with H102 or HPYD in 1:1 volume ratio to a final concentration of 11.07 μmol/L and 44.3 μmol/L, respectively. […] ThT fluorescence intensity was measured by using VARIAN PTC-Au00-01058 fluorescence spectrophotometer at the excitation wavelength of 453 nm and emission wavelength of 478-486 nm. […]
The fluorescence intensity from the aging group (in which Aβ1-42 lyophilized powder was formulated in 50 mmol/L PBS phosphate buffer (pH 7.4) to obtain a solution in a concentration of 11.07 μmol/L, and the obtained solution was incubated at 37° C. for 24 hours) from which baseline fluorescence intensity was subtracted would be taken as 100%, and the inhibitory rate of the drug on Aβ1-42 in each group was calculated. […]
Inhibitory rate=(the relative fluorescence intensity of 1-β sheet blocking peptide/the relative fluorescence intensity of Aβ1-42)×100%

[2] = target: T1, Aβ1-42; experiment: FT-IR spectrometry of Aβ1-42 secondary structure (β-sheet); format: biochemical; conditions: co-incubation with Aβ1-42 at 37° C. for 72 h
Method: 1.3 the Inhibition Effect of HPYD on Aβ1-42 Aggregation was Observed by FT-IR Spectrometry.
22.15 μmol/L Aβ1-42 solution in PBS phosphate buffer was formulated in quadruplicate as described in the above 1.2 section. To two solutions, PBS phosphate buffer was added in equal volume respectively and incubated alone at 37° C. for 30 min (30 min, aging group) and 72 h (72 h, aging group). To the other two solutions, H102 (88.60 μmol/L) and HPYD (88.60 μmol/L) were added in equal volume respectively and co-incubated at 37° C. for 72 h. After incubation, each sample was vacuum lyophilized. Then, 3.5 μg of H102 and 3.7 μg of HPYD were respectively mixed with anhydrous potassium bromide (120-180 mg) thoroughly, and pressurized for 5 min by tablet machine to form potassium bromide tablet. The measurement and analysis were carried out by using Nicolet Magna 760 FT-IR instrument, with a resolution of 4 cm^−1 and a spectrum range of 3500-400 cm^−1. The amide I band spectrum at 1700-1600 cm^−1 was analyzed using Origin 8.0 software. The fitting range was expanded to 1750-1550 cm^−1 due to the complexity of the components in the samples and the effect of vibration peaks close to amide I band on the secondary structure.
In the above-mentioned studies, Aβ1-42 was used as negative control, and H102 was used as positive control.

[3] = target: T1, Aβ1-42; experiment: Electron microscopy of Aβ1-42 fiber formation; format: biochemical; conditions: for Aβ fibers observed by electron microscope: co-incubation with Aβ1-42 for 5 days at 37° C.
Method: 1.4 the Inhibition Effect of HPYD on Aβ Aggregation was Observed by Using Electron Microscope. Aβ1-42 solution in PBS phosphate buffer (11.07 μmol/L, 20 μl) was formulated as described in the above 1.2 section, and incubated alone at 37° C. for 5 days. Meanwhile, Aβ1-42 (22.15 μmol/L, 10 μl) was respectively co-incubated with […] or HPYD (88.61 μmol/L, 10 μl) under the same conditions for 5 days. 5 μl sample was taken from each group and dropped on the carbon support film on 300-mesh deionized copper grids, and then kept still at ambient temperature for 15 min. The samples were negatively stained in dark with 2% uranyl acetate for 2 min. After drying, the samples were observed using transmission electron microscope. In the above-mentioned studies, Aβ1-42 was used as negative control, and […] was used as positive control.

[4] = target: T2, Aβ (Homo sapiens, UniProt P05067); conditions: from Chinese patent CN 101531703A; cited from earlier work
[5] = system: APP; experiment: Immunohistochemical staining of APP in brains of APP/PS1 double transgenic mice; format: in vivo; conditions: nasal 33 mg/ml at 5 μl/d, 30 days, n = 7, x ± S
Method: (§1) 1.1 Animals: Fourteen APP/PS1 double transgenic mice were randomized into model group and drug administration group. Seven C57BL/6J mice with the same age and genetic background were used in normal control group. These mice were all purchased from the Experimental Animal Research Center of Peking Union Medical College, Chinese Academy of Medical Sciences. By way of nasal administration, 33 mg/ml HPYD in physiological saline solutions were administered to the mice in drug administration group at a rate of 5 μl/d using drug delivery devices, and the same volume of physiological saline solutions were administered nasally to the mice in normal control group and model group. The detection was carried out 30 days after the administration.
(§2) 1.2 Drugs and reagents: Anti-Aβ1-42 antibody was purchased from Chemicon Inc. Anti-APP antibody, ready-to-use SABC Immunohistochemistry Staining Kit, DBA Color Development Kit and 0.1% polylysine were purchased from Wuhan Boster Biological Technology, Ltd. Other reagents have analytical purity.
(§3) 1.3 Immunohistochemical Staining: After Morris Water Maze was carried out in order to determine the learning ability of the experimental mice, the mice were anaesthetized by celiac injection with 0.1 kg/L chloral hydrate at a dose of 4 ml/kg. Rapid intubation was carried out via left ventricle. […]

[6] = system: APP/PS1 double transgenic mice; experiment: Morris Water Maze place navigation test; format: in vivo; conditions: nasal 33 mg/ml at 5 μl/d, 30 days, n = 7
Method: as §1, with “group.” for “group. These mice were all purchased from the Experimental Animal Research Center of Peking Union Medical College, Chinese Academy of Medical Sciences.”, “group in” for “group at”, “was performed” for “was carried out”
(§4) 1.2 Morris Water Maze test: (1) Place Navigation: A platform is placed in a circle within the third quadrant of water maze. Each mouse swims twice (90 s/time) during the same time periods of every day for 5 days. The time required for a mouse's finding and climbing onto the platform, i.e. escape latency, is recorded. If the mouse could not find the platform within 90 s, it is guided to the platform and kept for 20 s. In this case, the escape latency is recorded as 90 s. (2) Spatial Probe: The platform is removed at day 6, and during the same time period, a water entry point is optionally selected for putting a mouse into water. Each mouse swims once (90 s/time). The swim track of the mouse within 90 s, the numbers of leaping over the hidden platform, the original swimming angle after water entry, and so on are recorded for testing the memory ability of the mouse.
1.3 Data processing: The data obtained is expressed in mean±standard deviation (χ±5). Statistical analysis was performed using statistical software SPSS16.0. One-way ANOVA and pairwise comparison were employed. P<0.05 represents that the difference is statistically significant.

[7] = system: APP/PS1 double transgenic mice; experiment: Morris Water Maze spatial probe test; format: in vivo; conditions: 30 days, n = 7
Method: as §1, with “group.” for “group. These mice were all purchased from the Experimental Animal Research Center of Peking Union Medical College, Chinese Academy of Medical Sciences.”, “group in” for “group at”, “was performed” for “was carried out”
as §4, with “(2) Spatial Probe: The platform is removed at day 6, and during the same time period, a water entry point is optionally selected for putting a mouse into water. Each mouse swims once (90 s/time).” left out, “mouse. […]” for “mouse.”

[8] = target: T2, Aβ; experiment: Immunohistochemical staining of Aβ in brains of APP/PS1 double transgenic mice; format: in vivo; set-up: from tissue; host or cells: brain (cortex, hippocampus CA1) of APP/PS1 double transgenic mice; conditions: nasal 33 mg/ml at 5 μl/d, 30 days, n = 7, x ± S
Method: as §1, §2, §3

Sequence | Inhibitory rate (%) on Aβ1-42 aggregation [1] [%] | transmittance in each wavenumber representing secondary structures, versus Aβ incubated alone for 72 h [2] | Aβ fibers observed by electron microscope [3] | inhibitory rate on Aβ aggregation [4] [%] | content of β-sheet (FT-IR, 1640-1620 cm^−1) [2] | inhibition effect on Aβ aggregation by electron microscopy, compared with H102 ([3]; co-incubation with Aβ1-42 for 5 days) | APP ratio of positive cells (%), Cortex [5] [%] | APP ratio of positive cells (%), Hippocampus CA1 area [5] [%] | daily mean escape latency ([6]; 1 d) [s] | daily mean escape latency ([6]; 2 d) [s] | daily mean escape latency ([6]; 3 d) [s] | daily mean escape latency ([6]; 4 d) [s] | daily mean escape latency ([6]; 5 d) [s] | numbers of leaping over the hidden platform (numbers) ([7]; day 6, 90 s, nasal 33 mg/ml at 5 μl/d) | Orientation angles (degree) ([7]; day 6, nasal 33 mg/ml at 5 μl/d) | Aβ ratio of positive cells (%), Cortex [8] [%] | Aβ ratio of positive cells (%), Hippocampus CA1 area [8] [%]
HKQLPFFEED [H102, reference compound] | 14.168 ± 0.038 | significantly higher transmittance | Aβ fibers were significantly decreased | 27.84 |  |  |  |  |  |  |  |  |  |  |  |  | 
HKQLPFYEED [HPYD] | 27.013 ± 0.018 | significantly higher transmittance | significantly decreased and thinner |  | lowest | stronger inhibition effect on Aβ aggregation than H102 | 14.25 ± 3.25 | 12.75 ± 1.83 | 88.127 ± 4.137 | 80.404 ± 15.646 | 67.740 ± 24.389 | 45.950 ± 19.211 | 24.974 ± 9.685 | 2.25 ± 1.258 | 40.478 ± 26.533 | 15.85 ± 2.77 | 11.09 ± 2.47
